B1: TPR 5TU (parent)
chain: GGAUCUUCUCGAUCUAACAAAAAAGACAAAUCUGCCACAAAGCUUGAGAGCAUCUUCGGAUGCAGAGGCGGCAGCCUUCGGUGGCGCGAUAGCGCCAACGUUCUCAACUAUGACACGCAAAACGCGUGCUCCGUUGAAUGGAGUUUAUCAUG

Fewer inactive variants are shown than the library holds. A value given as a limit tells only on which side of the number the result lay.

In this data set the parent is B1. As to the kind of experiment: polymerase ribozyme fitness, log enrichment relative to wild type (log ratio); higher = more active; in vitro selection for triplet polymerase activity. Summed up:
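Fitness is a logarithmic measure of how a genotype enriched relative to the wild type, with replicate averages weighted by inverse variance. The logarithm uses base 2, and enrichment came from Illumina sequencing of input and output libraries. Those libraries were PCR-built, transcribed mutants of each subunit of a heterodimeric triplet polymerase ribozyme, passed through one triplicate in vitro selection round that included frozen incubation at −7 °C, gel excision of extended constructs and streptavidin-bead capture. Genotypes were kept only if they had ≥10 input reads and ≥1 read per output.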
Regarding G50U C87U G152U, the “polymerase ribozyme fitness (log ratio)” value was -4.17. To U55A C85A G133C belongs -3.05; to A26G C35U, -3.06.

Turning to A89C C99U C114U, the “polymerase ribozyme fitness (log ratio)” value was -2.63. To G34A G84A U134G belongs -2.82; to C57U C75G, -3.63; to A29U C32U A122G, not above -4.2.

For C57G A89G C93A, the “polymerase ribozyme fitness (log ratio)” value is not above -4.2. In the case of C96A C125U U130C, the “polymerase ribozyme fitness (log ratio)” value is -0.299. To A19C G86C C99U belongs -2.28. To A16U G81A belongs -1.95.

In the case of U9G C10G A17G A22G A23U G50A A73G, the “polymerase ribozyme fitness (log ratio)” value was not above -4.2.

Consider U6A C14A C32U G74A A138C, for which the “polymerase ribozyme fitness (log ratio)” value was not above -4.2. To G126A C132G belongs -2.68; to U55A A89U U102G, not above -4.2. To U55A U139G belongs -0.865; to A52G A66U A91U, not above -4.2. To C8G A29C U55G A60G C85G A89G G140C belongs not above -4.2; to C93G C149U, -4.08; to G83A C85U, -1.94. Consider A39C C118G, for which the “polymerase ribozyme fitness (log ratio)” value is -2.92. In the case of A41C A60G G92A A106U, the “polymerase ribozyme fitness (log ratio)” value is -3.98. To U56A A91G C95U C105G A120G belongs -3.49; to A12C C38G C85A C116A A120G, -1.83; to A16G U82A U145G, -1.4.

For A30C C79G C85U A106U, the “polymerase ribozyme fitness (log ratio)” value was not above -4.2. To C14G U82C belongs -3.65; to C8A A17C A26C A40C C87U U144G, not above -4.2; to C32G C54U A73C C79U C87G U145G, not above -4.2. To G70C G136C belongs not above -4.2. To C14G A40U A73G U104C belongs not above -4.2; to U45A C54U U61A C85U, not above -4.2. As to A12C G50C G65A C76G G83U, the “polymerase ribozyme fitness (log ratio)” value is not above -4.2. To C93U U109C belongs not above -4.2. To G58A G94C belongs -0.674. To C32U A41U belongs -3.95; to A24G G59C, -3.7. Regarding U55A C85A C105U U134A, the “polymerase ribozyme fitness (log ratio)” value is not above -4.2.

In the case of U31C U53G G67C C76G G83A, the “polymerase ribozyme fitness (log ratio)” value is -3.62. C5G C14G C96A: the “polymerase ribozyme fitness (log ratio)” value is -2.31.

As for G42A U61A G86A G136C, the “polymerase ribozyme fitness (log ratio)” value was not above -4.2. To C5U G25C G42U U61A A107U G133U A142C U148A belongs not above -4.2; to A41G C76A U77G G112A C116U A142C, not above -4.2. To G42U A47G C99G C116U belongs not above -4.2. Turning to A16C A40U C93A A122G G141C, the “polymerase ribozyme fitness (log ratio)” value was not above -4.2. As to G50U C85A U144A U145C, the “polymerase ribozyme fitness (log ratio)” value was -1.01. With G46C U144C, the “polymerase ribozyme fitness (log ratio)” value is -1.66.

For the variant U55A G84U, the “polymerase ribozyme fitness (log ratio)” value was -2.28. To A37G G50C belongs -3.93; to A60U C79U A98G C103A, not above -4.2; to A21U C72U U77G U82G G100C U135G, not above -4.2. To C54A C69U belongs -4.12.

Regarding U6G A26C G136A A142U U146A, the “polymerase ribozyme fitness (log ratio)” value was not above -4.2.

For the variant C35U A41G C85U G141U, the “polymerase ribozyme fitness (log ratio)” value was 1.25. To C69U C116G belongs 0.325; to U31A G86A U134C, -0.431. To A41U C76A belongs -1.99; to A16U U55G C85G C103U A121U, -4.13; to U56A C96A C103U, 0.293.

Take A73U C103G: the “polymerase ribozyme fitness (log ratio)” value is not above -4.2.

On to G48U G94A U151C, for which the “polymerase ribozyme fitness (log ratio)” value is not above -4.2.

As to A19C C38A C57A G80U C95U C116G, the “polymerase ribozyme fitness (log ratio)” value was -1.83. On to C14U G67A G88A G136U, for which the “polymerase ribozyme fitness (log ratio)” value was not above -4.2. To U146G A150C belongs not above -4.2; to C87U A110G G112U, not above -4.2; to A49C C75U C76A U77G G81U C87U C93U G94A C131G U134G, not above -4.2.

In the case of A40C A52G U82A G92U A106U, the “polymerase ribozyme fitness (log ratio)” value was -3.38. To U13A C76A U148G belongs not above -4.2; to A40G C85G U111G U151C, not above -4.2; to U53A A60G C96U A106U U139G, -2.41. To C51U C131G belongs -3.49. To U13C C27U A37G C54U A106G U109G C123G G124A belongs -3.57.

In the case of A12G U145A, the “polymerase ribozyme fitness (log ratio)” value was 1.33.

In the case of A39C G59A C87A U139G, the “polymerase ribozyme fitness (log ratio)” value was not above -4.2. To A30U A60C G62A C76A C96G U127G G143C belongs not above -4.2. As for A17U A19G A22U C93A, the “polymerase ribozyme fitness (log ratio)” value is -4.01.

On to C57U C116G G124C G141C U145G, for which the “polymerase ribozyme fitness (log ratio)” value is not above -4.2. To C95A C96A C116U belongs -0.649; to G83U G92A C125G A138G U151A, not above -4.2. To C35A G74A U144G C149G belongs not above -4.2; to A60C C93U C123A, -1.12; to C76A C87U A142G, -1.46. To C35A G50U C69A G74A belongs not above -4.2; to C27U A29U U144C, not above -4.2; to C14G C32G G141U A147C, not above -4.2. C32U G42A A60C A66G A73G C79A G84A C93U C96G A97U C103G: the “polymerase ribozyme fitness (log ratio)” value is not above -4.2. To A16G C116A belongs 0.283; to C93A U146G, -3.27. As for A21C U44A C75A C96A, the “polymerase ribozyme fitness (log ratio)” value is -3.98.

Consider A39G G117C, for which the “polymerase ribozyme fitness (log ratio)” value was -1.91. To C8G A23U A30U G42C G83C A97U belongs not above -4.2; to C14A A19G A26U C79A G83U A119C, not above -4.2.

For the variant C36A U55A A64U C96A C118G, the “polymerase ribozyme fitness (log ratio)” value is not above -4.2.

On to C35G U78G C99A, for which the “polymerase ribozyme fitness (log ratio)” value is not above -4.2. To A60C G62C G83U G133A belongs not above -4.2. To C93U U135A belongs -2.01; to U77G C99A G140A, not above -4.2.

With A39G A47C C123U A150G G152A, the “polymerase ribozyme fitness (log ratio)” value was -3.23. To U82G G86U belongs -1.46; to C75U C85U G86C, -1.49. To A26C A107G belongs not above -4.2; to U55G C87U U130C, -0.00301; to G59A G67A C108U, not above -4.2. To A23U A26C G50A belongs not above -4.2.

For A26G C72U U78G C85G, the “polymerase ribozyme fitness (log ratio)” value is not above -4.2.

C36A U55A C95G A97U U135A: the “polymerase ribozyme fitness (log ratio)” value was not above -4.2.

With G50U C95U C118A G140A, the “polymerase ribozyme fitness (log ratio)” value is not above -4.2. To A12C A19C C99U belongs -1.52. To C14G G65U G67U G133A U135A belongs not above -4.2; to A60G C93G, -3.44. Turning to C38G A60G C76G G81A G84U U102G C116U G128A, the “polymerase ribozyme fitness (log ratio)” value was not above -4.2. To A21U G141C belongs 0.187. To C8G U44A A52C C75A A91G U148G belongs not above -4.2; to A39C U82G G83C G133C, not above -4.2. To U53A A110C belongs not above -4.2; to C69U C85G G141A, -2.66; to G50U G92A, -2.93. Regarding A107U U145A, the “polymerase ribozyme fitness (log ratio)” value was -2.78. To G50A C69U A121U A137C belongs not above -4.2. To G59C G92A belongs -2.89; to G84A A97G, -2.34.

On to C99U C149U, for which the “polymerase ribozyme fitness (log ratio)” value was -1.17. As for G124C G141C, the “polymerase ribozyme fitness (log ratio)” value was -1.16. To C76A C125G U144G belongs -2.22; to C14G A39U U55G C95U, not above -4.2. To A39C G88C A97G C114G belongs not above -4.2; to A23U A52G C85U A89G A106G G141U U148G, not above -4.2; to C5A C96U, 0.321.

Regarding A26C A47C U77C U102C G117C, the “polymerase ribozyme fitness (log ratio)” value was not above -4.2. Take U6A A16U A107C C131G: the “polymerase ribozyme fitness (log ratio)” value was not above -4.2.

With C32A C51A C54A G92A A97U U146C, the “polymerase ribozyme fitness (log ratio)” value was not above -4.2. As to C10A C35U A97U, the “polymerase ribozyme fitness (log ratio)” value was not above -4.2. To A22U U31C C32U belongs -3. To C36U U102G C108A C116U A122G belongs not above -4.2; to C76U C96U, 0.0365. To A29G C35U U145C belongs -3.89; to A21C C87G, -3.89. For U9G A16U A64U C85G U135C U144G A150U, the “polymerase ribozyme fitness (log ratio)” value was not above -4.2. To C54A C85U belongs -1.86; to G94A C116U A122U G136A, -0.164. To C36A U56G G68C A98G C103A A121U belongs not above -4.2. To A41C A106G G133C A147U belongs -1.68. For C85U C99G G136U, the “polymerase ribozyme fitness (log ratio)” value is -2.88. To A22C G25A C51U A66C C85G C93U C116A belongs not above -4.2; to A29G A47C G70A C85G A89U A138C A142U, not above -4.2; to G50C G94A C116U, -3.3. To A52G U56G C85A C131U A137G belongs -3.95; to A29U U44A G58C U61A G71U U77A U82G G140C, not above -4.2; to U56A A73C G94C, -3.51.

For U53A A60U U61A C69G C96U, the “polymerase ribozyme fitness (log ratio)” value is -3.74. To A21U C69A G88U A97C belongs not above -4.2; to C38U U61C U145A, -2.49. A21G U55A C96U G117A: the “polymerase ribozyme fitness (log ratio)” value stood at 0.86. Consider G50C G71U C85A G124U, for which the “polymerase ribozyme fitness (log ratio)” value is not above -4.2. For U53A C79A A150U, the “polymerase ribozyme fitness (log ratio)” value is not above -4.2. Turning to U4A C14G A40G, the “polymerase ribozyme fitness (log ratio)” value is -3.69.

Take C8G G84U: the “polymerase ribozyme fitness (log ratio)” value is not above -4.2. As for G59C C95U, the “polymerase ribozyme fitness (log ratio)” value came to 0.0454. To A26C G86A U102A G128U C131G belongs not above -4.2; to A24U A26U C54U G84U U127A, not above -4.2; to A40C G50A A60U G88U G92C C95G G100U, not above -4.2.

Take U55A G74C C118U: the “polymerase ribozyme fitness (log ratio)” value was not above -4.2. To C54U G59C A60G A122U belongs 0.186. To C35G A60C belongs -3.99.

Turning to A37U U101G U134G G141A, the “polymerase ribozyme fitness (log ratio)” value was -4.08.

For C8A A17G U78G G94A G133A U134A, the “polymerase ribozyme fitness (log ratio)” value is not above -4.2. To A20U G50A G86U C96G belongs not above -4.2.

The values are drawn from the RNAGym collection of RNA variant scans (doi:10.1073/pnas.2313332121).
